From US8147844 (Genentech, dated 2012) come the findings set out here.

The target of test [1] is T1, mpl-IgG (chimeric molecule comprising the entire extracellular domain of human mpl, amino acids 1-491, and … (human, UniProt P40238 26-491)).
T1 construct: range 1-491; Expressed in 293 cells; no cleavage site is stated; Used immobilized on Ultralink or NHS-superose, captured on ELISA plates, or soluble; also called soluble mpl-IgG; soluble human mpl-IgG; not shown: Fc region of a human IgG1 molecule
T1 sequence (looked up): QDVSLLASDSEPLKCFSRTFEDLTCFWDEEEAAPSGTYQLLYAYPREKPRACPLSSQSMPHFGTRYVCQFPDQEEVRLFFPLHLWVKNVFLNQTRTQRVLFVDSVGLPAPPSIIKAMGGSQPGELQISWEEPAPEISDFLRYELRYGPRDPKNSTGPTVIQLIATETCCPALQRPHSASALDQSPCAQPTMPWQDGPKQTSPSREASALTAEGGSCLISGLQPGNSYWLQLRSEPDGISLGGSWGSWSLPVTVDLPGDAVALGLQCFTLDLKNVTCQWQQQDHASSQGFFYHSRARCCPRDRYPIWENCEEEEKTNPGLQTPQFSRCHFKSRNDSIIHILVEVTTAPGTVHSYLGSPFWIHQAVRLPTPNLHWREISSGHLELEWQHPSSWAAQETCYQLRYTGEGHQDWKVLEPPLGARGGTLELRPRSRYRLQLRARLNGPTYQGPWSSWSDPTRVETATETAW
Kind of test: mpl receptor based ELISA (captured mpl-IgG).

The target in test [2] is T1, mpl-IgG (chimeric molecule comprising …). Kind of test: mpl receptor-based ELISA: mpl-IgG captured on an anti-human IgG (Fc) plate, bound TPO detected with biotinylated rabbit antibodies to TPO155.

Several values for one entry are separate records, joined by “and”; a condition that tells them apart may be missing. Identical values can stand only once.

B1: TPO (1-155) with authentic N-terminus, generated by thrombin cleavage of T-H8MLF (ligand)
chain: SPAPPACDLRVLSKLLRDSHVLHSRLSQCPEVHPLPTPVLLPAVDFSLGEWKTQMEETKAQDILGAVTLLLEGVMAARGQLGPTCLSSLLGQLSGQVRLLLGALQSLLGTQLPPQGRTTAHKDPNAIFLSFQHLLRGKVRFLMLVGGSTLCVRRA
notes: Only very minor (<5%) internal cleavage occurred; also called cleaved variant (3)
B1: the EC50 in test [1] is 0.002 µg/mL to 0.004 µg/mL (2×) and 0.12 nM and 0.24 nM.

B2: TPO (Met^-1 1-153), refolded, produced in E. coli (ligand)
chain: MSPAPPACDLRVLSKLLRDSHVLHSRLSQCPEVHPLPTPVLLPAVDFSLGEWKTQMEETKAQDILGAVTLLLEGVMAARGQLGPTCLSSLLGQLSGQVRLLLGALQSLLGTQLPPQGRTTAHKDPNAIFLSFQHLLRGKVRFLMLVGGSTLCVR
modifications: non-glycosylated; disulfides between cysteines 1-4 and 2-3
notes: Encoded by plasmid pMP210-1
Turning to B2, the EC50 in test [2] was 0.0019 µg/mL and 0.12 nM.
